Source: patent US20180265577A1 (Eli Lilly, published 2018)

Tests used:
recombinant tau (rTau) [1] = molecular target: T1, recombinant tau (rTau) (UniProt P10636-8 1-441, limits assumed); experiment: direct ELISA, rTau coated at 'High' concentration (1 ug/mL), simulates aggregated tau
T1 construct: Coated at 'high' (1 ug/mL, simulates aggregated tau) or 'low' (15 ng/mL, simulates tau monomer) concentration; also called rTau Monomer
Procedure: (§1) 3690) at a concentration corresponding to 0.7 μg/ml of total tau. Plates are incubated overnight at 4° C., then washed three times with 150 μl of PBST (PBS containing 0.05% Tween-20), blocked in 100 μl BB3 (ImmunoChemistry Technology, p/n. 643) at room temperature for at least 1 hr (usually 2 hrs). Following blocking, the blocking buffer is removed from the wells. Exemplified tau monoclonal antibody of Example 1 and a humanized MC-1 antibody construct (having the framework combination: 5-51 heavy-chain, A27 light-chain) are diluted in 0.25% casein buffer to 1000 nM stock, then diluted serially 23 times with two fold dilutions. […] Reaction is stopped by adding 50 μl stop solution (2N H2SO4) and colorimetric signal is measured at 450 nm. […]
(§2) Selectivity of tau monoclonal antibody of Example 1 to tau aggregates versus tau monomer is determined by direct ELISA. […] The plates, coated with high or low concentrations of rTau, respectively, are exposed to exemplified tau monoclonal antibody of Example 1 and binding of exemplified tau monoclonal antibody to the respective concentrations of rTau is measured substantially as described in the ELISA assay above.

recombinant tau (rTau) [2] = molecular target: T1, recombinant tau (rTau); experiment: direct ELISA on rTau coated at 15 ng/ml; antibody stored 4 weeks at pH 4, 40 C; Study 2
Procedure: (§3) Formulated samples are incubated for four weeks at 4° C. or 40° C. in an accelerated degradation study. Following incubation, binding affinity of the exemplified tau monoclonal antibody of Example 1 to rTau (15 ng/ml) coated on 96-well plates is determined by direct ELISA following the ELISA procedure substantially as described above.

[3] = molecular target: T2, human monomeric (native or non-aggregate) tau (human, UniProt P10636 2-758); experiment: SPR (Biacore 2000), antibody captured on protein A, tau as analyte, steady state fit
T2 construct: Full-length human tau in monomeric state; analyte in SPR; also called Monomeric Tau; monomeric tau
T2 sequence (P10636 other isoform, or with tags, fused parts or gaps limits assumed): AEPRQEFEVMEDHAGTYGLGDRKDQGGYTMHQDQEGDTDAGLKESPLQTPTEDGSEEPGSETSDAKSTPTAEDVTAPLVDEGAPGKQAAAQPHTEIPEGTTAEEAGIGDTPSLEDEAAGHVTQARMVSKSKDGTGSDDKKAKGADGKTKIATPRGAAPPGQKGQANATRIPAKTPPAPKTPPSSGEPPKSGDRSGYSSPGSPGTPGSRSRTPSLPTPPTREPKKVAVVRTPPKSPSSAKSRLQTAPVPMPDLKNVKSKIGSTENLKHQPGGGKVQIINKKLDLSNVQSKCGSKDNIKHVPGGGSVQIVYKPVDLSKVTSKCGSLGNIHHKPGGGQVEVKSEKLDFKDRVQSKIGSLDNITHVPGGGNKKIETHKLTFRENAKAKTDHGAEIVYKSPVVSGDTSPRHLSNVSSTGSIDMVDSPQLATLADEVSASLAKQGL
Procedure: (§4) Surface Plasmon Resonance (SPR) assay, measured with a BIACORE® 2000 instrument (primed with HBS-EP+ running buffer (GE Healthcare, 10 mM Hepes pH7.4+150 mM NaCl+3 mM EDTA+0.05% surfactant P20) at 25° C.), is used to measure binding of exemplified tau monoclonal antibody of Example 1 to both human monomeric (e.g., native or non-aggregate) tau and human tau aggregates (both having the amino acid sequence as set forth in SEQ ID NO:13). Binding of humanized MC-1 antibody construct (having the framework combination: 5-51 heavy-chain, A27 light-chain) to human monomeric tau and human tau aggregate is measured in the same manner.
(§5) Except as noted, all reagents and materials are from BIACORE® AB (Upsala, Sweden). A CMS chip containing immobilized protein A (generated using standard NHS-EDC amine coupling) on all four flow cells (FC) is used to employ a capture methodology. […]
(§6) Data of binding to tau aggregate is processed using standard double-referencing and fit to a 1:1 binding model using Biacore 2000 Evaluation software, version 4.1, to determine the association rate (kₒₙ, M⁻¹ s⁻¹ units), dissociation rate (koff, s⁻¹ units), and Rₘₐₓ (RU units). The equilibrium dissociation constant (KD) was calculated from the relationship KD=koff/kₒₙ, and is in molar units. Data of binding to monomeric tau cannot be determined accurately by SPR as described above due to rapid on- and off-rates. […]

[4] = molecular target: T3, tau aggregates in sarkosyl-insoluble brain homogenate preps of 4.5 to 5 month old P301S mice; experiment: cell-based or functional assay
human tau aggregates [5] = molecular target: T4, human tau aggregates (human, UniProt P10636 2-758); experiment: SPR (Biacore 2000), antibody captured on protein A, tau aggregate as analyte, 1:1 fit; not normalized for avidity
T4 construct: analyte in SPR; also called fibril tau; tau fibril aggregate
Procedure: as §4, §5, §6

recombinant tau (rTau) [6] = molecular target: T1, recombinant tau (rTau); experiment: direct ELISA on rTau coated at 15 ng/ml; antibody stored 4 weeks at pH 4, 40 C; Study 1
Procedure: as §3

recombinant tau (rTau) [7] = molecular target: T1, recombinant tau (rTau); experiment: direct ELISA on rTau coated at 15 ng/ml; antibody stored 4 weeks at pH 6, 4 C; Study 2
Procedure: as §3

recombinant tau (rTau) [8] = molecular target: T1, recombinant tau (rTau); experiment: direct ELISA on rTau coated at 15 ng/ml; antibody stored 4 weeks at pH 6, 4 C; Study 1
Procedure: as §3

[9] = molecular target: T3, tau aggregates in sarkosyl-insoluble …; experiment: cell-based or functional assay; remark: listed apart in the source
[10] = molecular target: T5, purified tau fibrils from AD brain homogenates (human, UniProt P10636-8 2-441, limits assumed); experiment: direct ELISA on coated purified AD tau fibrils (0.7 ug/ml total tau)
T5 construct: Native brain-derived aggregated tau, coated at 0.7 ug/ml total tau; also called Purified AD Tau Fibrils; aggregate tau fibrils from AD brain homogenates
Procedure: (§7) Purified tau fibrils (50 μl) in PBS are coated on wells of 96-well plates (Coastar, p/n. 3690) at a concentration corresponding to 0.7 μg/ml of total tau. Plates are incubated overnight at 4° C., then washed three times with 150 μl of PBST (PBS containing 0.05% Tween-20), blocked in 100 μl BB3 (ImmunoChemistry Technology, p/n. 643) at room temperature for at least 1 hr (usually 2 hrs). Following blocking, the blocking buffer is removed from the wells. Exemplified tau monoclonal antibody of Example 1 and a humanized MC-1 antibody construct (having the framework combination: 5-51 heavy-chain, A27 light-chain) are diluted in 0.25% casein buffer to 1000 nM stock, then diluted serially 23 times with two fold dilutions. 50 μl of stock and serially diluted antibody (either exemplified tau monoclonal of Example 1 or humanized MC-1 antibody construct) are added to separate wells and incubated for 2 hours at room temperature, after which the plate is washed four times with 200 μl PBST per well. 50 μl of anti-human IgG-HRP antibodies (diluted at 1:4000 into 0.25% casein buffer) is added and incubated for 1 hour at room temperature, after which the plate is washed with 200 μl PBST per well 4 times. 50 μl of TMB/H2O2 is added and incubated at room temperature for about 10 minutes. Reaction is stopped by adding 50 μl stop solution (2N H2SO4) and colorimetric signal is measured at 450 nm. […]

recombinant tau (rTau) [11] = molecular target: T1, recombinant tau (rTau); experiment: direct ELISA, rTau coated at high (1 ug/mL) against low (15 ng/mL) concentration
Procedure: as §1, §2

human tau aggregates [12] = molecular target: T4, human tau aggregates; experiment: SPR (Biacore 2000), antibody captured on protein A, tau aggregate as analyte, 1:1 fit
Procedure: as §4, §5, §6

recombinant tau (rTau) [13] = molecular target: T1, recombinant tau (rTau); experiment: direct ELISA, rTau coated at 'Low' concentration (15 ng/mL), simulates tau monomer
Procedure: as §1, §2

recombinant tau (rTau) [14] = molecular target: T1, recombinant tau (rTau); experiment: direct ELISA on rTau coated at 15 ng/ml; antibody stored 4 weeks at pH 6, 40 C; Study 2
Procedure: as §3

recombinant tau (rTau) [15] = molecular target: T1, recombinant tau (rTau); experiment: direct ELISA on rTau coated at 15 ng/ml; antibody stored 4 weeks at pH 6, 40 C; Study 1
Procedure: as §3

[16] = molecular target: T5, purified tau fibrils from AD brain …; experiment: direct ELISA on coated purified AD tau fibrils
Procedure: as §7

T1 sequence (P10636 other isoform, or with tags, fused parts or gaps limits assumed): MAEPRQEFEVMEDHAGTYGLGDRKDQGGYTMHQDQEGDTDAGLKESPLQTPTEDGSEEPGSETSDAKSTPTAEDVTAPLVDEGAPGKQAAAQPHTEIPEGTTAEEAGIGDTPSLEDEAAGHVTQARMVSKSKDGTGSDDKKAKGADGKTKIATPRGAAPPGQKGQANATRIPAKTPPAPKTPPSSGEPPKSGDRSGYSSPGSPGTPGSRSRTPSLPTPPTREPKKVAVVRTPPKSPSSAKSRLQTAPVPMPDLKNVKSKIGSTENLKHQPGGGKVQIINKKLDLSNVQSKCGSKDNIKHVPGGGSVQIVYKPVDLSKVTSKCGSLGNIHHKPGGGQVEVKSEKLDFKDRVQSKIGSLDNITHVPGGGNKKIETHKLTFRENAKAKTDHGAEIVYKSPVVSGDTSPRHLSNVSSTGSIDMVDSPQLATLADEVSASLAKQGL

- EC50 (recombinant tau (rTau) [1]): 0.006 nM
- EC50 (recombinant tau (rTau) [2]): 0.277 nM
- Kd [3]: 235 nM
- fold improvement in the inhibition of induced tau aggregate propagation (against humanized MC-1 antibody construct) [4]: ~30 fold
- Kd (human tau aggregates [5]): < 0.22 nM
- EC50 (recombinant tau (rTau) [6]): 0.414 nM
- EC50 (recombinant tau (rTau) [7]): 0.636 nM
- EC50 (recombinant tau (rTau) [8]): 0.926 nM
- EC50 (representing inhibition of AT8-Positive Tau Aggregate propagation (ng/mL)) [9]: 16 ng/mL
- EC50 [10]: 0.0068 nM
- fold improved affinity (as measured by EC50) to aggregate tau over monomeric tau (recombinant tau (rTau) [11]): 120 fold
- koff (human tau aggregates [12]): < 1e-05 s⁻¹
- kon (human tau aggregates [12]): 45900 M⁻¹ s⁻¹
- EC50 (recombinant tau (rTau) [13]): 0.723 nM
- EC50 (recombinant tau (rTau) [14]): 0.667 nM
- EC50 (recombinant tau (rTau) [15]): 0.754 nM
- fold improved affinity (as measured by EC50) over humanized MC-1 antibody construct [16]: 60 fold
B1: exemplified tau monoclonal antibody of Example 1 (antibody, human IgG4 S228P, kappa, F234A L235A, V domains shown)
VH: EVQLVQSGAEVKKPGESLKISCKGSGYTFSNYWIEWVRQMPGKGLEWMGEILPGSDSIKYEKNFKGQVTISADKSISTAYLQWSSLKASDTAMYYCARRGNYVDDWGQGTLVTVSS
VL: EIVLTQSPGTLSLSPGERATLSCRSSQSLVHSNQNTYLHWYQQKPGQAPRLLIYKVDNRFSGIPDRFSGSGSGTDFTLTISRLEPEDFAVYYCSQSTLVPLTFGGGTKVEIKR
notes: Humanized IgG4 (HC framework 5-51), kappa LC (framework A27); expressed in CHO cells; Carries seven CDR changes relative to murine MC-1; also called exemplified engineered tau monoclonal antibody
